{"source": "paper PMC8286842", "about": "“The structures of E. coli NfsA bound to the antibiotic nitrofurantoin; to 1,4-benzoquinone and to FMN” (Biochemical Journal, 2021)", "assay_type_in_all_cases": "biochemical, Escherichia coli", "key": {"[1]": {"substrate": "NC(=O)C1=CN([C@@H]2O[C@H](COP(=O)(O)OP(=O)(O)OC[C@H]3O[C@@H](n4cnc5c(N)ncnc54)[C@H](OP(=O)(O)O)[C@@H]3O)[C@@H](O)[C@H]2O)C=CC1", "experiment": "steady-state kinetics, purified enzyme (global ping-pong fit with nitrofurantoin)", "details": "FMN; pH 7.0; 25.0 °C; varied: cofactor"}, "[2]": {"substrate": "NC(=O)N/N=C/c1ccc([N+](=O)[O-])o1", "experiment": "steady-state kinetics of reduction by NADPH, purified enzyme", "details": "FMN; pH 7.0; 25.0 °C"}, "[3]": {"substrate": "NC(=O)c1cc(N2CC2)c([N+](=O)[O-])cc1[N+](=O)[O-]", "experiment": "steady-state kinetics of reduction by NADPH, purified enzyme", "details": "FMN; pH 7.0; 25.0 °C"}, "purified protein [4]": {"substrate": "CC1=CC(=O)c2ccccc2C1=O", "experiment": "purified protein", "details": "FMN; pH 7.0; 25.0 °C"}, "purified protein [5]": {"substrate": "O=C1C=CC(=O)C=C1", "experiment": "purified protein", "details": "FMN active site, stacked on FMN; O2′ hydroxyl of FMN, backbone NH of Ser […], Gln […], close to Arg […]; a separate, additional quinol ring appears covalently attached at Cys […]; pH 7.0; 25.0 °C"}, "purified protein [6]": {"substrate": "O=C1CN(/N=C/c2ccc([N+](=O)[O-])o2)C(=O)N1", "experiment": "purified protein", "details": "FMN active site, parallel to the FMN ring; hydrogen bonds involving Arg […], Lys […], Arg […] and Ser […]; pH 7.0; 25.0 °C"}}, "data": [{"protein": "NfsA (Escherichia coli K-12) (protein, untagged, dimer) MTPTIELICGHRSIRHFTDEPISEAQREAIINSARATSSSSFLQCSSIIRITDKALREELVTLTGGQKHVAQAAEFWVFCADFNRHLQICPDAQLGLAEQLLLGVVDTAMMAQNALIAAESLGLGGVYIGGLRNNIEAVTKLLKLPQHVLPLFGLCLGWPADNPDLKPRLPASILVHENSYQPLDKGALAQYDEQLAEYYLTRGSNNRRDTWSDHIRRTIIKESRPFILDYLHKQGWATR", "values": [{"measurement": "Km", "setting": "[1]", "value": "10.9 ± 1.6 (Km) µM"}, {"measurement": "kcat", "setting": "[1]", "value": "81 ± 3", "unit": "s⁻¹"}, {"measurement": "kcat/Km", "setting": "[1]", "value": "7.4e+06 ± 1e+06", "unit": "M⁻¹ s⁻¹"}, {"measurement": "Km", "setting": "[2]", "value": "13 ± 2 (Km) µM"}, {"measurement": "kcat", "setting": "[2]", "value": "29.6 ± 0.9", "unit": "s⁻¹"}, {"measurement": "kcat/Km", "setting": "[2]", "value": "2.3e+06 ± 200000", "unit": "M⁻¹ s⁻¹"}, {"measurement": "Km", "setting": "[3]", "value": "190 ± 20 (Km) µM"}, {"measurement": "kcat", "setting": "[3]", "value": "42 ± 1", "unit": "s⁻¹"}, {"measurement": "kcat/Km", "setting": "[3]", "value": "230000 ± 2000", "unit": "M⁻¹ s⁻¹"}, {"measurement": "Km", "setting": "purified protein [4]", "value": "11 ± 2 (Km app) µM"}, {"measurement": "kcat", "setting": "purified protein [4]", "value": "9 ± 0.4", "unit": "s⁻¹"}, {"measurement": "kcat/Km", "setting": "purified protein [4]", "value": "820000 ± 80000", "unit": "M⁻¹ s⁻¹"}, {"measurement": "Km", "setting": "purified protein [5]", "value": "3 ± 0.4 (Km app) µM"}, {"measurement": "kcat", "setting": "purified protein [5]", "value": "24 ± 0.8", "unit": "s⁻¹"}, {"measurement": "kcat/Km", "setting": "purified protein [5]", "value": "8e+06 ± 800000", "unit": "M⁻¹ s⁻¹"}, {"measurement": "Km", "setting": "purified protein [6]", "value": "20.6 ± 1.6 (Km) µM"}, {"measurement": "kcat", "setting": "purified protein [6]", "value": "81 ± 3", "unit": "s⁻¹"}, {"measurement": "kcat/Km", "setting": "purified protein [6]", "value": "3.9e+06 ± 200000", "unit": "M⁻¹ s⁻¹"}]}]}
